Assay results taken from publication PMC9352680, “A comprehensive thermodynamic model for RNA binding by the Saccharomyces cerevisiae Pumilio protein PUF4”.
Changes are numbered by the printed parent chain. Names may count otherwise.

T1: PUF4 RNA-binding domain (Saccharomyces cerevisiae, UniProt P25339 537-888)
T1 sequence: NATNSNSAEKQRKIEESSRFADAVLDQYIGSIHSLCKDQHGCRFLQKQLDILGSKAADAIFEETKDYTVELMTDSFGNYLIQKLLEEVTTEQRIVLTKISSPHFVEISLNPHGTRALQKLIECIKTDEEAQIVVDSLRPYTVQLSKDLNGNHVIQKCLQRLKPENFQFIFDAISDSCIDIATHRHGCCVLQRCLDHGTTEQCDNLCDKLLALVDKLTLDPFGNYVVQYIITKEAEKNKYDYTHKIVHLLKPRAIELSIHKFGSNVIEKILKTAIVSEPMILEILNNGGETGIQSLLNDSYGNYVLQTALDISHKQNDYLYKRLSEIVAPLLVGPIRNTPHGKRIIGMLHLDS

B1: Id_ii_S2_P5E.3_K5.2_C5.2_[C-2T]_[T-1C]_H5.2_A5.1_F5.1_T5.2_[T11A]_[A12C] (ssRNA)
RNA: UUUGAUUAAUAUGAUAUCGUUCUUUCUUCUAUAUUAUUAACUUCUUUCUCGAUAUCAUAUUAAUCUUU
B2: Id_ii_S2_P5E.3_K5.2_C5.2_[C-2T]_[T-1C]_H5.2_A5.1_F5.1_T5.2_[T11C]_[A12C] (ssRNA)
RNA: B1 RNA with A40C
B3: Id_ii_S2_P5E.3_K5.2_C5.2_[C-2A]_[T-1C]_H5.2_A5.1_F5.1_T5.2_[T11A]_[A12C] (ssRNA)
RNA: B1 RNA with U28A
B4: Id_ii_S2_P5E.3_K5.2_C5.2_[C-2T]_[T-1A]_H5.2_A5.1_F5.1_T5.2_[T11C]_[A12T] (ssRNA)
RNA: B1 RNA with C29A, A40C, C41U
B5: Id_ii_S2_P5E.3_K5.2_C5.2_[C-2T]_[T-1A]_H5.2_A5.1_F5.1_T5.2_[T11A] (ssRNA)
RNA: B1 RNA with C29A, C41A
B6: Id_ii_S2_P5E.3_K5.2_C5.2_[C-2T]_[T-1C]_H5.2_A5.1_F5.1_T5.2_[T11A] (ssRNA)
RNA: B1 RNA with C41A
B7: Id_ii_S2_P5E.3_K5.2_C5.2_[C-2T]_H5.2_A5.1_F5.1_T5.2_[T11G]_[A12T] (ssRNA)
RNA: B1 RNA with C29U, A40G, C41U
B8: Id_ii_S2_P5E.3_K5.2_C5.2_[C-2T]_H5.2_A5.1_F5.1_T5.2_[T11C]_[A12G] (ssRNA)
RNA: B1 RNA with C29U, A40C, C41G
B9: Id_ii_S2_P5E.3_K5.2_C5.2_[C-2T]_[T-1A]_H5.2_A5.1_F5.1_T5.2_[T11A]_[A12T] (ssRNA)
RNA: B1 RNA with C29A, C41U
B10: Id_ii_S2_P5E.3_K5.2_C5.2_[C-2T]_[T-1C]_H5.2_A5.1_F5.1_T5.2_[T11C] (ssRNA)
RNA: B1 RNA with A40C, C41A
B11: Id_ii_S2_P5E.3_K5.2_C5.2_[C-2T]_[T-1G]_H5.2_A5.1_F5.1_T5.2_[T11G]_[A12C] (ssRNA)
RNA: B1 RNA with C29G, A40G
B12: Id_ii_S2_P5E.3_K5.2_C5.2_[C-2G]_[T-1C]_H5.2_A5.1_F5.1_T5.2_[A12T] (ssRNA)
RNA: B1 RNA with U28G, A40U, C41U
B13: Id_ii_S2_P5E.3_K5.2_C5.2_[C-2A]_[T-1C]_H5.2_A5.1_F5.1_T5.2_[T11A] (ssRNA)
RNA: B1 RNA with U28A, C41A
B14: Id_ii_S2_P5E.3_K5.2_C5.2_[C-2T]_H5.2_A5.1_F5.1_T5.2_[T11C] (ssRNA)
RNA: B1 RNA with C29U, A40C, C41A
B15: Id_ii_S2_P5E.3_K5.2_C5.2_[C-2G]_H5.2_A5.1_F5.1_T5.2_[T11C]_[A12C] (ssRNA)
RNA: B1 RNA with U28G, C29U, A40C
B16: Id_ii_S2_P5E.3_K5.2_C5.2_[C-2T]_[T-1A]_H5.2_A5.1_F5.1_T5.2_[T11A]_[A12C] (ssRNA)
RNA: B1 RNA with C29A
B17: Id_ii_S2_P5E.3_K5.2_C5.2_[C-2G]_H5.2_A5.1_F5.1_T5.2_[A12T] (ssRNA)
RNA: B1 RNA with U28G, C29U, A40U, C41U
B18: Id_ii_S2_P5E.3_K5.2_C5.2_[C-2G]_H5.2_A5.1_F5.1_T5.2_[T11C]_[A12G] (ssRNA)
RNA: B1 RNA with U28G, C29U, A40C, C41G
B19: Id_ii_S2_P5E.3_K5.2_C5.2_[C-2T]_H5.2_A5.1_F5.1_T5.2_[T11G]_[A12C] (ssRNA)
RNA: B1 RNA with C29U, A40G
B20: Id_ii_S2_P5E.3_K5.2_C5.2_[C-2T]_[T-1A]_H5.2_A5.1_F5.1_T5.2_[T11G]_[A12T] (ssRNA)
RNA: B1 RNA with C29A, A40G, C41U
B21: Id_ii_S2_P5E.3_K5.2_C5.2_[C-2G]_H5.2_A5.1_F5.1_T5.2_[T11G]_[A12T] (ssRNA)
RNA: B1 RNA with U28G, C29U, A40G, C41U
B22: Id_ii_S2_P5E.3_K5.2_C5.2_[C-2T]_[T-1G]_H5.2_A5.1_F5.1_T5.2_[T11A]_[A12C] (ssRNA)
RNA: B1 RNA with C29G
B23: Id_ii_S2_P5E.3_K5.2_C5.2_[C-2T]_[T-1G]_H5.2_A5.1_F5.1_T5.2_[T11A] (ssRNA)
RNA: B1 RNA with C29G, C41A
B24: Id_ii_S2_P5E.3_K5.2_C5.2_[C-2G]_[T-1C]_H5.2_A5.1_F5.1_T5.2_[T11A] (ssRNA)
RNA: B1 RNA with U28G, C41A
B25: Id_ii_S2_P5E.3_K5.2_C5.2_[C-2T]_[T-1A]_H5.2_A5.1_F5.1_T5.2_[T11C]_[A12G] (ssRNA)
RNA: B1 RNA with C29A, A40C, C41G
B26: Id_ii_S2_P5E.3_K5.2_C5.2_[C-2T]_[T-1G]_H5.2_A5.1_F5.1_T5.2_[T11G]_[A12T] (ssRNA)
RNA: B1 RNA with C29G, A40G, C41U

Molecular target: T1, PUF4 RNA-binding domain
Assay: Mg; RNA-MaP; 20 mM Na-HEPES pH 7.4, 30 mM KOAc, 0.75 mM MgCl2, 0.1% Tween-20, 5% glycerol, 0.1 mg/mL BSA, 2 mM DTT; 25 C; 0.0125-409.6 nM protein
Settings: tags: N-His6-TEV cleaved; C-SNAP kept, Cy3B-labelled; label: tethered on chip by stalled RNA polymerase

Binder | Kd
B1 | 94.7 nM
B2 | 65.6 nM
B3 | 102 nM
B4 | 6.8 nM
B5 | 22.6 nM
B6 | 220 nM
B7 | 442 nM
B8 | 152 nM
B9 | 21 nM
B10 | 179 nM
B11 | 0.514 nM
B12 | 92.5 nM
B13 | 319 nM
B14 | 131 nM
B15 | 14.9 nM
B16 | 9.27 nM
B17 | 11.7 nM
B18 | 68.5 nM
B19 | 219 nM
B20 | 41.6 nM
B21 | 16.7 nM
B22 | 0.571 nM
B23 | 0.435 nM
B24 | 394 nM
B25 | 19.5 nM
B26 | 0.685 nM
UCUCUUUGUAUUUGUAUCUCUU (ssRNA) [Ib_S1_P5E.1_K5.1_C5.1_H5.1_A5.1_[A7T]_F5.1_[T8G]_T5.1] | 10.1 nM
UCUCUUUGUAUUGGUAUCUCUU (ssRNA) [Ic_S1_P5E.1_K5.1_C5.1_H5.1_A5.1_[A7G]_F5.1_[T8G]_T5.1] | 37.5 nM
UCUCUUUGUAUUGCUAUCUCUU (ssRNA) [Ib_S1_P5E.1_K5.1_C5.1_H5.1_A5.1_[A7G]_F5.1_[T8C]_T5.1] | 15.4 nM
